The values that follow come from publication PMC9603474, “Genome-Wide Identification of DOF Gene Family and the Mechanism Dissection of SbDof21 Regulating Starch Biosynthesis in Sorghum”.

This data set addresses T1, SbDOF21 (Sorghum bicolor cv. BTx623, UniProt C5Y2M8 1-340).
T1 sequence: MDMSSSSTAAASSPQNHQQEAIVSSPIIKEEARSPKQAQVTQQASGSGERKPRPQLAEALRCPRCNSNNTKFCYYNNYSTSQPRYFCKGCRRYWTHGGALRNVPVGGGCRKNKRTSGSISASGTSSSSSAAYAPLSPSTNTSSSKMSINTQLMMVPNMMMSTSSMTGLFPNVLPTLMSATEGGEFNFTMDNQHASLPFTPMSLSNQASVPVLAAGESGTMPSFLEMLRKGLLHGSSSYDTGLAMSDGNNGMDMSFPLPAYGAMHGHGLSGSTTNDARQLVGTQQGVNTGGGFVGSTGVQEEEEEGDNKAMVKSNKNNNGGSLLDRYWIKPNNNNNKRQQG
As to the kind of experiment: EMSA; 20-fold unlabeled probe partly reduced the shift; Chemiluminescent EMSA Kit (Beyotime) per instructions; buffer, salt, pH and temperature not stated. To be noted: protein: recombinant; tags: His (pET32a, N-terminal vector fusion); blunt. In general terms: Mobility shift assays separate free from complexed probe on a gel.

B1: 4x P-Box (dsDNA)
DNA 1: TGTAAAGTGTAAAGTGTAAAGTGTAAAG
DNA 2: CTTTACACTTTACACTTTACACTTTACA
Turning to B1, the binding result is “binds”.
